Read-outs that look alike come from different tables or passages of the source.
T1: Human CD3eg linker (human)
T1 construct: Single-chain soluble construct; also called recombinant human CD3
T1 chain: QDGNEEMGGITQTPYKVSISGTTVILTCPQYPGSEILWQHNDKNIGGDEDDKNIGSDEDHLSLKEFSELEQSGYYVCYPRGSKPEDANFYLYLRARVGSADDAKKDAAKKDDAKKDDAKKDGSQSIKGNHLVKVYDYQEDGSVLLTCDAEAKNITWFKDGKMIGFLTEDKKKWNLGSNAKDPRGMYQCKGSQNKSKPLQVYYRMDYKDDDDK


Experiments:
Human CD3eg linker [1] = biological target: T1, Human CD3eg linker; assay: SPR Biacore 8K, Ab captured on anti-human Fc, CD3 as analyte, 25 C
Protocol: (§1) Binding affinity of Dual-Ig antibodies to human CD3 were assessed at 25 degrees C. using Biacore 8K instrument (GE Healthcare). Anti-human Fc (GE Healthcare) was immobilized onto all flow cells of a CM4 sensor chip using amine coupling kit (GE Healthcare). Antibodies were captured onto the anti-Fc sensor surfaces, then recombinant human CD3 or CD137 was injected over the flow cell. All antibodies and analytes were prepared in ACES pH 7.4 containing 20 mM ACES, 150 mM NaCl, 0.05% Tween 20, 0.005% NaN₃. Sensor surface was regenerated each cycle with 3M MgCl₂. […] CD137 binding affinity assay was conducted in same condition except assay temperature was set at 37 degrees C.

[2] = biological target: T2, Human CD137 extracellular domain (ECD) (human); assay: SPR Biacore 8K, Ab captured on anti-human Fc, CD137 as analyte, 37 C
T2 construct: also called Human CD137 ECD; recombinant human CD137
Protocol: as §1

Human CD3eg linker [3] = biological target: T1, Human CD3eg linker; assay: SPR Biacore 8K, 25 C; reference xGPC3/DualAE05-xSG1350kSG1349hV11
Protocol: as §1
This is caused by faster off rate in FAST-Ig construct. […] This is caused by faster off rate in FAST-Ig construct.

Human CD3eg linker [4] = biological target: T1, Human CD3eg linker; assay: SPR Biacore 8K, Ab captured on anti-human Fc, CD3 as analyte, 25 C
Protocol: (§2) Binding affinity of Dual-Fab antibodies (Dual-Ig) to human CD3 were assessed at 25 degrees C. using Biacore 8K instrument (GE Healthcare). Anti-human Fc (GE Healthcare) was immobilized onto all flow cells of a CM4 sensor chip using amine coupling kit (GE Healthcare). Antibodies were captured onto the anti-Fc sensor surfaces, then recombinant human CD3 or CD137 was injected over the flow cell. All antibodies and analytes were prepared in ACES pH 7.4 containing 20 mM ACES, 150 mM NaCl, 0.05% Tween 20, 0.005% NaN₃. Sensor surface was regenerated each cycle with 3M MgCl₂. […] CD137 binding affinity assay was conducted in same condition except assay temperature was set at 37 degrees C.

[5] = biological target: T2, Human CD137 extracellular domain (ECD); assay: SPR Biacore 8K, Ab captured on anti-human Fc, CD137 as analyte, 37 C; remark: listed apart in the source
Protocol: as §2

T2 sequence (chain, as listed by the source limits assumed): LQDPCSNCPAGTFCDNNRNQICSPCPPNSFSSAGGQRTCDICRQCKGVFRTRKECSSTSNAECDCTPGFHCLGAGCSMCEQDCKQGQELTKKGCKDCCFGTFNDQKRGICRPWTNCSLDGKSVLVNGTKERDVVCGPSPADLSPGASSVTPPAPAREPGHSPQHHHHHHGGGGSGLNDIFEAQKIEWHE

Binder	Kd (Human CD3eg linker [1]) [nM]	koff (Human CD3eg linker [1]) [s⁻¹]	kon (Human CD3eg linker [1]) [M⁻¹ s⁻¹]	Kd [2] [nM]	koff [2] [s⁻¹]	kon [2] [M⁻¹ s⁻¹]	fold weaker binding affinity than CrossMab xSG1350 (Human CD3eg linker [3]) [fold]	Kd (Human CD3eg linker [4]) [nM]	koff (Human CD3eg linker [4]) [s⁻¹]	kon (Human CD3eg linker [4]) [M⁻¹ s⁻¹]	Kd [5] [nM]	koff [5] [s⁻¹]	kon [5] [M⁻¹ s⁻¹]
GPC3EK/DualAE05KE-SG1365k1363hV11 (bispecific antibody, V domains shown, 1+1 tri-specific, FAST-Ig format; Full chains not tied by name) VH 1: QVQLVQSGAEVKKPGASVTVSCKASGYTFTDYEMHWIREPPGEGLEWIGAIDGPTPDTAYSEKFKGRVTLTADKSTSTAYMELSSLTSEDTAVYYCTRFYSYTYWGQGTLVTVSS VL 1: DIVMTQSPLSLPVTPGEPASISCRSSQPLVHSNRNTYLHWYQKKPGQAPRLLIYKVSNRFSGVPDRFSGSGSGTDFTLKISRVEAEDVGVYYCGQGTQVPYTFGQGTKLEIK VH 2: QVQLVESGGGLVQPGRSLRLSCAASGFKFSNVWFHWVRKAPGKGLEWVAQIKDYYNAYAAYYAPSVKGRFTISRDDSKNSIYLQMNSLKTEDTAVYYCHYVHYASASTLLPAEGVDAWGQGTTVTVSS VL 2: DIVMTQSPLSLPVTPGEPASISCQPSQEVVHMNRNTYLHWYQEKPGQAPRLLIYKVSNRFPGVPDRFSGSGSGTDFTLKISRVEAEDVGVYYCAQGTSHPFTFGQGTKLEIK	751	0.0628	83500	43.5	0.00063	14500	~3						
H1595L0581 (antibody, V domains shown, Dual-Ig with an Fc; also called DualAE24; dBBDu183H1595/dBBDu072L0581) VH: QVQLVESGGGLVQPGRSLRLSCAASGFKFSNTWMHWVRQAPGKGLEWVAQIKDKYNAYAAYYAPSVKGRFTISRDDSKNSIYLQMNSLKTEDTAVYYCHYIHYASASTLLPAFGVDAWGQGTTVTVSS VL: DIVMTQSPLSLPVTPGEPASISCQPSQEVVHMNRNTYLHWYQQKPGQAPRLLIYKVSNRFPGVPDRFSGSGSGTDFTLKISRVEAEDVGVYYCAQGTSHPFTFGQGTKLEIK								57	0.00658	116000	195	0.00269	13800
H1644L0939 (antibody, V domains shown, Dual-Ig with an Fc; also called DualAE16; dBBDu183H1644/dBBDu072L0939) VH: QVQLVESGGGLVQPGRSLRLSCAASGFVFSNVWFHWVRQAPGKGLEWVAQIKDYYNAYAAYYAPSVKGRFTISRDDSKNSIYLQMNSLKTEDTAVYYCHYVHYASASTLLPAEGVDAWGQGTTVTVSS VL: DIVMTQSPLSLPVTPGEPASISCQPSQEVVHMNRNTYLHWYQQKPGQAPRLLIYKVSNVFPGVPDRFSGSGSGTDFTLKISRVEAEDVGVYYCAQGTHHPFTFGQGTKLEIK								1450	0.0808	55800	36.8	0.000444	12100
H0888L0581 (antibody, V domains shown, Dual-Ig with an Fc; also called DualAE02; dBBDu183H0888/dBBDu072L0581) VH: QVQLVESGGGLVQPGRSLRLSCAASGFKFSNVWMHWVRQAPGKGLEWVAQIKDKWNAYAAYYAPSVKGRFTISRDDSKNSIYLQMNSLKTEDTAVYYCHYIHYASASTLLPAFGIDAWGQGTTVTVSS VL: DIVMTQSPLSLPVTPGEPASISCQPSQEVVHMNRNTYLHWYQQKPGQAPRLLIYKVSNRFPGVPDRFSGSGSGTDFTLKISRVEAEDVGVYYCAQGTSHPFTFGQGTKLEIK								20.2	0.00192	95000	208	0.00311	15000

Continued by falling Kd (Human CD3eg linker [4]), values first:

Kd (Human CD3eg linker [1]) [nM]	koff (Human CD3eg linker [1]) [s⁻¹]	kon (Human CD3eg linker [1]) [M⁻¹ s⁻¹]	Kd [2] [nM]	koff [2] [s⁻¹]	kon [2] [M⁻¹ s⁻¹]	fold weaker binding affinity than CrossMab xSG1350 (Human CD3eg linker [3]) [fold]	Kd (Human CD3eg linker [4]) [nM]	koff (Human CD3eg linker [4]) [s⁻¹]	kon (Human CD3eg linker [4]) [M⁻¹ s⁻¹]	Kd [5] [nM]	koff [5] [s⁻¹]	kon [5] [M⁻¹ s⁻¹]	Binder
							273	0.034	124000	275	0.00406	14800	H1579L0581 (antibody, V domains shown, Dual-Ig with an Fc; also called DualAE25; dBBDu183H1579/dBBDu072L0581) VH: QVQLVESGGGLVQPGRSLRLSCAASGFKFSHVWFHWVRQAPGKGLEWVAQIKDKYNAYAAYYAPSVKGRFTISRDDSKNSIYLQMNSLKTEDTAVYYCHYVHYASASTLLPAFGVDAWGQGTTVTVSS VL: DIVMTQSPLSLPVTPGEPASISCQPSQEVVHMNRNTYLHWYQQKPGQAPRLLIYKVSNRFPGVPDRFSGSGSGTDFTLKISRVEAEDVGVYYCAQGTSHPFTFGQGTKLEIK
							158	0.0188	121000	70.6	0.00103	14600	H1573L0581 (antibody, V domains shown, Dual-Ig with an Fc; also called DualAE07; dBBDu183H1573/dBBDu072L0581) VH: QVQLVESGGGLVQPGRSLRLSCAASGFKFSNVWFHWVRQAPGKGLEWVAQIKDYYNAYAAYYAPSVKGRFTISRDDSKNSIYLQMNSLKTEDTAVYYCHYVHYASASTLLPAFGVDAWGQGTTVTVSS VL: DIVMTQSPLSLPVTPGEPASISCQPSQEVVHMNRNTYLHWYQQKPGQAPRLLIYKVSNRFPGVPDRFSGSGSGTDFTLKISRVEAEDVGVYYCAQGTSHPFTFGQGTKLEIK
